Measurements reported in publication PMC12401969, “The gut microbiota protein BOC1 exhibits immune checkpoint inhibitor-like activity by inhibiting myeloid-derived suppressor cell differentiation” (Frontiers in Immunology, 2025).

B1: CD200-His (ligand, UniProt P41217 31-232, looked up)
chain: QVQVVTQDEREQLYTPASLKCSLQNAQEALIVTWQKKKAVSPENMVTFSENHGVVIQPAYKDKINITQLGLQNSTITFWNITLEDEGCYMCLFNTFGFGKISGTACLTVYVQPIVSLHYKFSEDHLNITCSATARPAPMVFWKVPRSGIENSTVTLSHPNGTTSVTSILHIKDPKNQVGKEVICQVLHLGTVTDFKQTVNKG
notes: CD200 (OX-2), soluble His-tagged protein; Held on anti-6His Acceptor beads in the AlphaLISA; also called His-tagged CD200

Legend:
[1] = target: CD200R1 on human monocytes, MoDCs and MDSCs (human (endogenous in primary monocytes, MoDCs, MDSCs)) (UniProt Q8TD46)
biotinylated CD200R1 [2] = target: T1, biotinylated CD200R1 (UniProt Q8TD46 29-265, biotin (site not stated)); assay: AlphaScreen or HTRF; AlphaLISA; 3 nM CD200R1-(biot) with a dose response (0.1 to 100 nM) of the His-tagged protein; fit 'One site-total' (GraphPad Prism)
T1 construct: CD200R1 (CD200 receptor 1), soluble biotinylated protein; Held on streptavidin Donor beads in the AlphaLISA; also called CD200R1-(biot)
T1 sequence (looked up): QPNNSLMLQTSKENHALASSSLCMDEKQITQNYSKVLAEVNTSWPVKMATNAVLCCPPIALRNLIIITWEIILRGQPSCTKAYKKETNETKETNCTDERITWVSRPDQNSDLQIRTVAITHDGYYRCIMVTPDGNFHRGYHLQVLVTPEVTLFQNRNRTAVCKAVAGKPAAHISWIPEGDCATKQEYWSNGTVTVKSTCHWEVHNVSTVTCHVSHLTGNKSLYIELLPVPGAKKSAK

biotinylated CD200R1 [3] = target: T1, biotinylated CD200R1; assay: AlphaScreen or HTRF; AlphaLISA; 3 nM CD200R1-(biot) with a dose response of His-tagged BOC1, its mutants, CD200 or P352 (0.1 to 300 nM by the legend, 0.1 to 100 nM by the table's footnote); fit 'One site-total' (GraphPad Prism)

Sequence of CD200R1 on human monocytes, MoDCs and MDSCs (human (endogenous in primary monocytes, MoDCs, MDSCs)) (Q8TD46 25-348): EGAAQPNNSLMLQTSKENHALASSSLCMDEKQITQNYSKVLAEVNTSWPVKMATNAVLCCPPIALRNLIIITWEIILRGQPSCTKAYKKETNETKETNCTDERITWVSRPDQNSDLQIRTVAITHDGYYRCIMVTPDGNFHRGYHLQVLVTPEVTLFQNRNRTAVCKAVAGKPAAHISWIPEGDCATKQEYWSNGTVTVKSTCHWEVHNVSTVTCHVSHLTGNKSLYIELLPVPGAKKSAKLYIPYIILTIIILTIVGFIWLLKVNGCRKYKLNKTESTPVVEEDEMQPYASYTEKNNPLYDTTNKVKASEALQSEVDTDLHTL

Molecule	inhibition of the differentiation of human monocytes into MDSCs (rhIL-6 + rhGM-CSF, 7 days; BOC1 at 1, 10, 50 nM), CD14+CD11b+CD33+HLA-DRlow cells by flow cytometry [1] [%]	Kd (biotinylated CD200R1 [2]) [nM]	Kd (biotinylated CD200R1 [3]) [nM]	Kd (biotinylated CD200R1 [2]; both partners purified) [nM]	Kd (biotinylated CD200R1 [3]; both partners purified) [nM]
BOC1-His (natural protein)	90	0.38	0.38	–	–
BOC1-m1 (Glu19) (natural protein)	–	–	0.96	–	–
BOC1-m2 (Ser34) (natural protein)	–	–	2.78	–	–
B1	–	–	–	1.56 ± 0.3	0.95 ± 0.27
